Reference: patent publication US20240343803A1 (SHANDONG SIMCERE BIOPHARMACEUTICAL, published 2024)
Changes are numbered by the printed parent chain. Values belong to the binder of their own block, whether it stands above or below them.

Key:
[1] = molecular target: T1, human PVRIG-his (AcroBiosystems, Cat NO. PVG-H52H4) (human, UniProt Q6DKI7 41-171, limits assumed); assay: SPR (BIAcore), antibody captured on Protein A chip, human PVRIG-His analyte
T1 construct: also called human PVRIG protein
T1 sequence (looked up): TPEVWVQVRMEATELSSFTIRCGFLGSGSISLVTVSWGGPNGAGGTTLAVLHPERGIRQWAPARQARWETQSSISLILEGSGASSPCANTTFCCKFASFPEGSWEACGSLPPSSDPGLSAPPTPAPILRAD
Method: Biacore was used to detect the specific binding between anti-PVRIG antibody and human PVRIG protein. Protein A chip was used in the BIAcore assay. The time required for the chip to capture the diluted antibody and saturate the binding antigen to reach Rₘₐₓ (Maximum binding capacity, 50 RU) was measured by manual run. […] The affinity of antibody for antigen was measured by multi-cycle kinetics. In each cycle, the antibodies were injected prior to the injection of gradient concentraions of PVRIG proteins allowing the occurrence of antibody-antigen association and dissociation After each cycle, the Protein A chip was regenerated by Glycine, pH 1.5 (to remove the proteins on the chip). The affinity of antibody for antigen was calculated by BIAcore T200 analysis software.

[2] = molecular target: T2, human PVRIG-mFc protein (Acro, PVG-H5253) (human, UniProt Q6DKI7 41-171, limits assumed); assay: FACS blocking of PVRIG-mFc binding to CHO-K1-CD112 cells; competitor CD112
T2 construct: extracellular domain; Bought protein; also called PVRIG-ECD-mFc; not shown: mouse Fc tag of the bought protein
T2 sequence (looked up): T1 sequence (looked up)
How it was run: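 Zombie violet-stained CHO-K1-CD112 cells were added for 30 min at 4° C, then PE goat anti-mouse IgG Fc (1:250) was applied and mean fluorescence intensity read on a BD Canto II. Curves were fitted with four-parameter logistic models in GraphPad Prism 9. IC50 and curve AUC were reported as percentages of the reference antibody values.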

[3] = molecular target: T3, human PVRIG-mFc protein (Acro, PVG-H5253) (human, UniProt Q6DKI7 41-171, limits assumed); assay: FACS competition, PVRIG-mFc binding to CHO-K1-CD112 cells, competitor CD112 on cells
T3 construct: bought protein
T3 sequence (looked up): T1 sequence (looked up)
Method: A working solution of human PVRIG-mFc protein (Acro, PVG-H5253) prepared with staining buffer, 1 μg/mL (four-fold concentration), was added into a 96-well plate (50 μL PVRIG-mFc working solution per well). […] The diluted antibodies were added to the well containing 50 μL of PVRIG-mFc. The plate was placed on a microplate shaker at 400 rpm for 1 minute to fully mix the antibodies and PVRIG-mFc proteins, and then incubated at 4° C. for 30 minutes. After the incubation, the cell suspension prepared above (100 μL) was added into the wells, gently mixed with the pipette tip and incubated at 4° C. for 30 minutes. After the incubation, the cells were washed twice with staining buffer (200 μL per well) and centrifuged at 350×g for 5 minutes to discard the supernatant. The PE goat anti-mouse IgG Fc antibody (Biolegend, 405337) was diluted 250 times with staining buffer, added into the washed wells (100 μL per well), mixed well, and stained at 4° C. for 30 minutes. After staining, the cells were washed twice with staining buffer, finally resuspended with 200 μL staining buffer and analyzed by flow cytometry (BD, Canto II). The weaker the fluorescence signal, the stronger the ability of the antibodies blocks the binding of CHO-K1 human CD112 cells to the PVRIG-mFc protein. An antibody binding curve was drawn with concentration of antibodies as the abscissa and the corresponding Mean Fluorescence Intensity (MFI) as the ordinate. The IC50 value of the antibodies and the AUC value of the binding curve were calculated by using a Four Parameter Logistic Fit (GraphPadPrism9). The smaller the IC50 value and AUC value, the stronger the ability of the antibodies competes with CHO-K1-CD112 cells to bind to human PVRIG-mFc protein. […] […] The smaller the percentage value, the stronger the blocking ability of the antibodies.

B2: PVRIG-A105 (Fc fusion)
chain: EVQLVESGGGLVQAGGSLRLSCAASGRTFDRHTMTWFRQAPGKEREFVATASRIPGDTYYSHSVKGRFTISRDNAKNTVYLQLNNLKPEDTAVYYCAATSAYCSEVDCYEKGSWYDNWGQGIQVTVSS
notes: Alpaca VHH expressed as VHH-hinge-CH2-CH3 of human IgG1; not shown: human IgG1 hinge-CH2-CH3 (Fc)
% AUC to COM701-hIgG4 [2]: 114% | % AUC to SO35-hIgG1 [2]: 65.6% | % AUC to parental Ab [2]: 100% | % IC50 to COM701-hIgG4 [2]: 104% | % IC50 to SO35-hIgG1 [2]: 88.3% | % IC50 to parental Ab [2]: 100%

B6: PVRIG-A105-H3 (Fc fusion)
chain: B2 chain with A14P, S61V, H62D, T78S, L83M, N85S, K87R, P88A, I122T, Q123M
notes: VHH-human IgG1 Fc format is stated for the parental VHH antibodies; not restated for the humanized variants; also called A105.VH3; not shown: human IgG1 hinge-CH2-CH3 (Fc)
% AUC to COM701-hIgG4 [2]: 109% | % AUC to SO35-hIgG1 [2]: 62.9% | % AUC to parental Ab [2]: 95.8% | % IC50 to COM701-hIgG4 [2]: 109% | % IC50 to SO35-hIgG1 [2]: 91.9% | % IC50 to parental Ab [2]: 104%

B7: COM701-hIgG1 (antibody, V domains shown)
VH: QVQLVQSGAEVKKPGASVKVSCKASGYTFTDYNINWVRQAPGQGLEWMGYIYPYIGGSGYAQKFQGRVTMTRDTSTSTVYMELSSLRSEDTAVYYCAREDKTARNAMDYWGQGTLVTVSS
VL: DIQMTQSPSSLSASVGDRVTITCRVSENIYSNLAWYQQKPGKAPKLLIYEATNLAEGVPSRFSGSGSGTDFTLTISSLQPEDFATYYCQHFWGTPYTFGQGTKLEIK
notes: positive control; human IgG1 format
Kd [1]: 0.319 nM | koff [1]: 0.000651 s⁻¹ | kon [1]: 2.04e+06 M⁻¹ s⁻¹

B8: PVRIG-A11 (Fc fusion)
chain: QLQLVESGGGLVQPGGSLRLSCAASGFTDDYYAIGWFRQAPGKEREGVSCISGSGGSTNYEDSVKGRFAISRDNAKNMVYLQMNDLKPEDTAVYYCAADPFWSAPCTGHNDRYFDVWGQGTLVTVSS
notes: heavy chain antibody VHH-hinge-CH2-CH3, human IgG1 constant part; not shown: human IgG1 hinge-CH2-CH3
% AUC to COM701-hIgG4 [3]: 78% | % AUC to SRF813-hIgG1 [3]: 58.9% | % IC50 to COM701-hIgG4 [3]: 62.8% | % IC50 to SRF813-hIgG1 [3]: 64.1% | Kd [1]: 0.106 nM | koff [1]: 0.00338 s⁻¹ | kon [1]: 3.18e+07 M⁻¹ s⁻¹

More lines, now with the values ahead:

Kd [1]: 0.278 nM | koff [1]: 0.000317 s⁻¹ | kon [1]: 1.14e+06 M⁻¹ s⁻¹
B1: SRF813-hIgG1 (antibody, V domains shown)
VH: QVQLVQSGAEVKKPGSSVKVSCKASGGTFSSAAISWVRQAPGQGLEWMGNIIPIVGIANYAQKFQGRVTITADESTSTAYMELSSLRSEDTAVYYCARDTGRGYTRHFWFDPWGQGTLVTVSS
VL: DIQMTQSPSSLSASVGDRVTITCRASQSISSYLNWYQQKPGKAPKLLIYAASSLQSGVPSRFSGSGSGTDFTLTISSLQPEDFATYYCQQSDILYTFGGGTKVEIK
notes: as for B7

% AUC to COM701-hIgG4 [2]: 112% | % AUC to SO35-hIgG1 [2]: 64.6% | % AUC to parental Ab [2]: 98.4% | % IC50 to COM701-hIgG4 [2]: 110% | % IC50 to SO35-hIgG1 [2]: 93.2% | % IC50 to parental Ab [2]: 105%
B3: PVRIG-A105-H4 (Fc fusion)
chain: B2 chain with A14P, T78S, V79L, L83M, N85S, K87R, P88A, I122T, Q123M
notes: VHH-human IgG1 Fc format is stated for the parental VHH antibodies; not restated for the humanized variants; also called A105.VH4; not shown: human IgG1 hinge-CH2-CH3 (Fc)

% IC50 to COM701-hIgG4 [2]: 110% | % IC50 to SO35-hIgG1 [2]: 93.4% | % IC50 to parental Ab [2]: 106%
B4: PVRIG-A105-H5 (Fc fusion)
chain: B2 chain with A14P, S61V, H62D, T78S, V79L, L83M, N85S, K87R, P88A
notes: VHH-human IgG1 Fc format is stated for the parental VHH antibodies; not restated for the humanized variants; also called A105.VH5; not shown: human IgG1 hinge-CH2-CH3 (Fc)

% AUC to COM701-hIgG4 [2]: 3530% | % AUC to SO35-hIgG1 [2]: 2040% | % AUC to parental Ab [2]: 3100% | % IC50 to COM701-hIgG4 [2]: 3060% | % IC50 to SO35-hIgG1 [2]: 2590% | % IC50 to parental Ab [2]: 2930%
B5: PVRIG-A105-H3a (Fc fusion)
chain: EVQLVESGGGLVQPGGSLRLSCAASGRTFDRHTMTWFRQAPGKEREFVATASRIPGDTYYVDSVKGRFTISRDNAKNSVYLQMNSLRAEDTAVYYCAATSAYSSEVDSYEKGSWYDNWGQGTMVTVSS
notes: VHH-human IgG1 Fc format is stated for the parental VHH antibodies; not restated for the humanized variants; also called A105.VH3a; not shown: human IgG1 hinge-CH2-CH3 (Fc)
